Results from patent publication US20100273186A1, “SPLIT MUTANT HYDROLASE FUSION REPORTER AND USES THEREOF” (Promega Corporation, priority 2007, published 2010).

B1: DhaA.H272F: DhaA mutant, catalytic triad His272 replaced with Phe (protein, UniProt P0A3G2 1-293, looked up, variant H272F)
Haloalkane dehalogenase: MSEIGTGFPFDPHYVEVLGERMHYVDVGPRDGTPVLFLHGNPTSSYLWRNIIPHVAPSHRCIAPDLIGMGKSDKPDLDYFFDDHVRYLDAFIEALGLEEVVLVIHDWGSALGFHWAKRNPERVKGIACMEFIRPIPTWDEWPEFARETFQAFRTADVGRELIIDQNAFIEGALPKCVVRPLTEVEMDHYREPFLKPVDREPLWRFPNELPIAGEPANIVALVEAYMNWLHQSPVPKLLFWGTPGVLIPPAEAARLAESLPNCKTVDIGPGLFYLQEDNPDLIGSEIARWLPAL
B2: DhaA.D106C:H272F: DhaA double mutant D106C and H272F (protein, UniProt P0A3G2 1-293, looked up, variant D106C H272F)
Haloalkane dehalogenase: MSEIGTGFPFDPHYVEVLGERMHYVDVGPRDGTPVLFLHGNPTSSYLWRNIIPHVAPSHRCIAPDLIGMGKSDKPDLDYFFDDHVRYLDAFIEALGLEEVVLVIHCWGSALGFHWAKRNPERVKGIACMEFIRPIPTWDEWPEFARETFQAFRTADVGRELIIDQNAFIEGALPKCVVRPLTEVEMDHYREPFLKPVDREPLWRFPNELPIAGEPANIVALVEAYMNWLHQSPVPKLLFWGTPGVLIPPAEAARLAESLPNCKTVDIGPGLFYLQEDNPDLIGSEIARWLPAL
B3: YL: DhaA.H272F based mutant with Y273L (protein, UniProt P0A3G2 1-293, looked up, variant H272F Y273L)
Haloalkane dehalogenase: MSEIGTGFPFDPHYVEVLGERMHYVDVGPRDGTPVLFLHGNPTSSYLWRNIIPHVAPSHRCIAPDLIGMGKSDKPDLDYFFDDHVRYLDAFIEALGLEEVVLVIHDWGSALGFHWAKRNPERVKGIACMEFIRPIPTWDEWPEFARETFQAFRTADVGRELIIDQNAFIEGALPKCVVRPLTEVEMDHYREPFLKPVDREPLWRFPNELPIAGEPANIVALVEAYMNWLHQSPVPKLLFWGTPGVLIPPAEAARLAESLPNCKTVDIGPGLFLLQEDNPDLIGSEIARWLPAL
B4: YM: DhaA.H272F based mutant with Y273M (protein, UniProt P0A3G2 1-293, looked up, variant H272F Y273M)
Haloalkane dehalogenase: MSEIGTGFPFDPHYVEVLGERMHYVDVGPRDGTPVLFLHGNPTSSYLWRNIIPHVAPSHRCIAPDLIGMGKSDKPDLDYFFDDHVRYLDAFIEALGLEEVVLVIHDWGSALGFHWAKRNPERVKGIACMEFIRPIPTWDEWPEFARETFQAFRTADVGRELIIDQNAFIEGALPKCVVRPLTEVEMDHYREPFLKPVDREPLWRFPNELPIAGEPANIVALVEAYMNWLHQSPVPKLLFWGTPGVLIPPAEAARLAESLPNCKTVDIGPGLFMLQEDNPDLIGSEIARWLPAL
B5: DhaA.D106C: DhaA mutant, Asp106 replaced with Cys (protein, UniProt P0A3G2 1-293, looked up, variant D106C)
Haloalkane dehalogenase: MSEIGTGFPFDPHYVEVLGERMHYVDVGPRDGTPVLFLHGNPTSSYLWRNIIPHVAPSHRCIAPDLIGMGKSDKPDLDYFFDDHVRYLDAFIEALGLEEVVLVIHCWGSALGFHWAKRNPERVKGIACMEFIRPIPTWDEWPEFARETFQAFRTADVGRELIIDQNAFIEGALPKCVVRPLTEVEMDHYREPFLKPVDREPLWRFPNELPIAGEPANIVALVEAYMNWLHQSPVPKLLFWGTPGVLIPPAEAARLAESLPNCKTVDIGPGLHYLQEDNPDLIGSEIARWLPAL
B6: DhaA.D106E: DhaA single mutant D106E (protein, UniProt P0A3G2 1-293, looked up, variant D106E)
Haloalkane dehalogenase: MSEIGTGFPFDPHYVEVLGERMHYVDVGPRDGTPVLFLHGNPTSSYLWRNIIPHVAPSHRCIAPDLIGMGKSDKPDLDYFFDDHVRYLDAFIEALGLEEVVLVIHEWGSALGFHWAKRNPERVKGIACMEFIRPIPTWDEWPEFARETFQAFRTADVGRELIIDQNAFIEGALPKCVVRPLTEVEMDHYREPFLKPVDREPLWRFPNELPIAGEPANIVALVEAYMNWLHQSPVPKLLFWGTPGVLIPPAEAARLAESLPNCKTVDIGPGLHYLQEDNPDLIGSEIARWLPAL
B7: YC: DhaA.H272F based mutant with Y273C (protein, UniProt P0A3G2 1-293, looked up, variant H272F Y273C)
Haloalkane dehalogenase: MSEIGTGFPFDPHYVEVLGERMHYVDVGPRDGTPVLFLHGNPTSSYLWRNIIPHVAPSHRCIAPDLIGMGKSDKPDLDYFFDDHVRYLDAFIEALGLEEVVLVIHDWGSALGFHWAKRNPERVKGIACMEFIRPIPTWDEWPEFARETFQAFRTADVGRELIIDQNAFIEGALPKCVVRPLTEVEMDHYREPFLKPVDREPLWRFPNELPIAGEPANIVALVEAYMNWLHQSPVPKLLFWGTPGVLIPPAEAARLAESLPNCKTVDIGPGLFCLQEDNPDLIGSEIARWLPAL
B8: DhaA.WT: wild type Rhodococcus rhodochrous dehalogenase (DhaA), SEQ ID NO:1 (protein, listed as Rhodococcus rhodochrous)
chain: MSEIGTGFPFDPHYVEVLGERMHYVDVGPRDGTPVLFLHGNPTSSYLWRNIIPHVAPSHRCIAPDLIGMGKSDKPDLDYFFDDHVRYLDAFIEALGLEEVVLVIHDWGSALGFHWAKRNPERVKGIACMEFIRPIPTWDEWPEFARETFQAFRTADVGRELIIDQNAFIEGALPKCVVRPLTEVEMDHYREPFLKPVDREPLWRFPNELPIAGEPANIVALVEAYMNWLHQSPVPKLLFWGTPGVLIPPAEAARLAESLPNCKTVDIGPGLHYLQEDNPDLIGSEIARWLPAL

Columns and labels:
[1] = Fluorescence polarization (FP) labeling assay; assay type: binding; settings: relative to DhaA.H272F H11YL
Text: Fluorescence polarization (FP) is ideal for the study of small fluorescent ligands binding to proteins. It is unique among methods used to analyze molecular binding because it gives direct nearly instantaneous measure of a substrate bound/free ratio. Therefore, an FP assay was developed as an alternative approach to fluorimage gel analysis of the purified DhaA mutants. […] To place this rate in perspective, approximately 42 and 420-fold more A7 and parental, i.e., DhaA.H272F, protein, respectively, was required in the reaction to obtain measurable rates. Under the labeling conditions used, it is evident that the H11YL mutant was also considerably faster than A7 and parental, DhaA.H272F proteins with the fluorescein-based substrate. However, it appears that labeling of H11YL with carboxyfluorescein-C10H21NO2—Cl is markedly slower than labeling with the corresponding carboxytetramethylrhodamine-C10H21NO2—Cl substrate. Four-fold more H11YL protein was used in the carboxyfluorescein-C10H21NO2—Cl reaction (150 nM) versus the carboxytetramethylrhodamine-C10H21NO2—Cl reaction (35 nM), yet the rate observed appeared to be qualitatively slower than the observed carboxytetramethylrhodamine-C10H21NO2—Cl rate.
Based on the sensitivity and truly homogenous nature of this assay, FP was used to characterize the labeling properties of the purified DhaA mutants with the fluorescently coupled substrates. The data from these studies was then used to calculate a second order rate constant for each DhaA mutant-substrate pair. […] However, in each case labeling was slower with the carboxyfluorescein-C10H21NO2—Cl substrate. All of the first generation DhaA mutants characterized by FP had rates that ranged from 7 to 3555-fold faster than the corresponding parental protein. By far, the biggest impact on labeling rate by a single amino acid substitution occurred with the three replacements at the 273 position (Y273L, Y273M, and Y273C) in the DhaA.H272F background. Nevertheless, in each of the first generation DhaA.H272F mutants tested, labeling with the carboxyfluorescein-C10H21NO2—Cl substrate always occurred at a slower rate (1.6 to 46-fold). […] The H11YL rate constant of 2.2×10^6 M^−1 sec^−1 was nearly identical to the rate constant calculated for a carboxytetramethylrhodamine-coupled biotin/streptavidin interaction. This value is consistent with an on-rate of 5×10^6 M^−1 sec^1 determined for a biotin-streptavidin interaction using surface plasmon resonance analysis (Qureshi et al., 2001). Several of the second generation mutants also had improved rates with the carboxyfluorescein-C10H21NO2—Cl substrate, however, as noted previously, these rates were always slower than with the carboxytetramethylrhodamine-C10H21NO2—Cl substrate. […]

[2] = Binding of substrate to DhaA mutants
Text: (§1) Carboxytetramethylrhodamine-C10H21NO2—Cl, carboxyfluorescein-C10H21NO2—Cl, and 5-carboxy-X-rhodamine-C10H21NO2—Cl bound to DhaA.H272F but not to DhaA.WT. Biotin-C10H21NO2—Cl bound to DhaA.H272F but not to DhaA.WT.
DhaA.H272 mutants, i.e. H272F/G/A/Q, bound to carboxytetramethylrhodamine-C10H21NO2—Cl.
A control mutant, DhaA.D106Q, single mutants DhaA.D106C, DhaA.D106Y, and DhaA.D106E, as well as double mutants DhaA.D106C:H272F, DhaA.D106E:H272F, DhaA.D106Q:H272F, and DhaA.D106Y:H272F were analyzed for binding to carboxytetramethylrhodamine-C10H21NO2—Cl. Carboxytetramethylrhodamine-C10H21NO2—Cl bound to DhaA.D106C, DhaA.D106C:H272F, DhaA.D106E, and DhaA.H272F. Thus, the bond formed between carboxytetramethylrhodamine-C10H21NO2—Cl and cysteine or glutamate at residue 106 in a mutant DhaA is stable relative to the bond formed between carboxytetramethylrhodamine-C10H21NO2—Cl and DhaA.WT. Other substitutions at position 106 alone or in combination with substitutions at other residues in DhaA may yield similar results. Further, certain substitutions at position 106 alone or in combination with substitutions at other residues in DhaA may result in a mutant DhaA that forms a bond with only certain substrates.

[3] = Binding of substrate to DhaA mutants; remark: listed apart in the source
Text: as §1

MagneGST-based assay = assay type: binding
Text: An automated MagneGST™-based assay was used to screen the DhaA mutant protein libraries. […] For clones with at least 50% higher activity than the DhaA.H272F parent, the overall hit rate of the libraries examined varied from between 1-3%. Similar screening results were obtained for the DhaA.D106C libraries (data not shown). The hits identified by the initial primary screen were located in the master plates, consolidated, re-grown and reanalyzed using the MagneGST™ assay. Only those DhaA mutants with at least a 2-fold higher signal than the parental control upon reanalysis were chosen for sequence analysis.
The results of these analyses were consistent with protein labeling studies using SDS-PAGE fluorimage gel analysis. In an effort to determine if combinations of the best mutations identified in the DhaA.H272F background were additive, the three mutations at residue 273 were recombined with the DhaA.H272F A7 and DhaA.H272F H11 mutations. In order to distinguish these recombined protein mutants from the mutants identified in round one of screening (first generation), they are referred to as “second generation” DhaA mutants.

Row | Molecule | binding to carboxytetramethylrhodamine-C10H21NO2—Cl [2] | improvement over the parental clones (MagneGST-based assay) | further results
1 | B1 | bound |  | fold more protein required in the reaction to obtain measurable rates [1]: ~420 fold; binding to 5-carboxy-X-rhodamine-C10H21NO2—Cl [3]: bound; binding to Biotin-C10H21NO2—Cl [3]: bound; binding to carboxyfluorescein-C10H21NO2—Cl [3]: bound
2 | B2 | bound |  | 
3 | B3 |  | significantly improved | 
4 | B4 |  | significantly improved | 
5 | B5 | bound |  | 
6 | B6 | bound |  | 
7 | B7 |  | significantly improved | 
8 | B8 | not |  | binding to 5-carboxy-X-rhodamine-C10H21NO2—Cl [3]: not; binding to Biotin-C10H21NO2—Cl [3]: not; binding to carboxyfluorescein-C10H21NO2—Cl [3]: not
